Reference: patent US20150231240A1, “ANTI-C16ORF54 ANTIBODIES AND METHODS OF USE THEREOF” (priority 2012, published 2015)

Experiments:
[1] = target: T1, N-terminal 32 amino acids of huC16orf54 (Homo sapiens, UniProt Q6UWD8); experiment: Affinity measurements of purified antibodies on OctetQK384; format: binding; conditions: purified antibody, streptavidin sensors coated with N-terminal 32 amino acids of huC16orf54 coupled to biotin
T1 sequence (Q6UWD8 1-32 limits assumed): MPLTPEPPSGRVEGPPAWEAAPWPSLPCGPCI
Procedure: (§1) Affinity measurements of purified anti-huC16orf54 antibodies were carried out on the OctetQK384® sytem (ForteBio). After coating streptavidin sensors with the N-terminal 32 amino acids of huC16orf54 coupled to biotin at the C-terminus, association and dissociation of purified anti-huC16orf54 antibodies was monitored. KD values were derived using ForteBio's software.

[2] = target: T2, Human C16-ECD peptide (aa1-31) (human); experiment: column head 'Full kinetics (nM)' in the table of the C16orf54 peptide binding assays; method and antigen not described; 4 runs
T2 construct: Coated on plates in the peptide ELISA; also called human extracellular domain peptide
T2 peptide: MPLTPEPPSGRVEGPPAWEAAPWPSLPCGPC

[3] = target: T3, cynomolgus monkey C16orf54 (cynomolgus monkey (Macaca fascicularis), UniProt Q6UWD8 1-224 (human entry)); experiment: flow cytometry titration, F279-cyno-C16orf54 cells
T3 construct: also called cyno C16orf54; cyno-C16orf54
T3 chain: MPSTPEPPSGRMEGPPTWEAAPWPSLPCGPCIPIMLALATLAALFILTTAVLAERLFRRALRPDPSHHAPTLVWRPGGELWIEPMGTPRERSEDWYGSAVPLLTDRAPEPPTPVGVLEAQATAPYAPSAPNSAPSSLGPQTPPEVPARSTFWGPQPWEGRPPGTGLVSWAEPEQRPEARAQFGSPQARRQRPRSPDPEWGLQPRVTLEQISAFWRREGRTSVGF
Procedure: Anti-C16orf54 antibodies which bound to human C16orf54 were tested for their binding to cells expressing human C16orf54 and cells expressing cyno C16orf54. […] Median fluorescence intensities for each primary antibody concentration were used to derive a flow EC50/Kd using the one site-specific binding with Hill slope model in Prism (GraphPad Prism® Software). Results are shown as flow EC50 in Table 35.

[4] = target: T4, human C16orf54 (human, UniProt Q6UWD8 1-224); experiment: flow cytometry, WSU-DLCL2 lymphoma cells (endogenous C16orf54), 1 repeat
T4 construct: also called huC16orf54; hC16orf54
T4 sequence: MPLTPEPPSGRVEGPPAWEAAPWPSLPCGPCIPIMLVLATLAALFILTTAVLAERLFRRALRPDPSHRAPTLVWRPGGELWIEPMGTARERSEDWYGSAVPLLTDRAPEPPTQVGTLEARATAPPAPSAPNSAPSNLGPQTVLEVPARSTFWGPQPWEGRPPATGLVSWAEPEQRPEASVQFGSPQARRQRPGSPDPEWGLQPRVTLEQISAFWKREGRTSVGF

[5] = target: T4, human C16orf54; experiment: flow cytometry, KARPAS-1106P lymphoma cells (endogenous C16orf54), 1 repeat
[6] = target: T4, human C16orf54; experiment: flow cytometry, 10 ug/ml antibody, D42M1-huC16orf54 cells
Procedure: Anti-C16orf54 antibodies which bound to human C16orf54 were tested for their reactivity with human C16orf54 and their crossreactivity with C16orf54 from cynomolgous monkeys (cyno C16orf54) using flow cytometry. Sarcoma cells transfected with and expressing human C16orf54 or cyno C16orf54 were washed with PBS with 0.1% BSA, incubated with FcX receptor blocking solution (BioLegend) for 15 minutes, incubated with 10 μg/ml of anti-C16orf54 antibody for 1 hour at 4° C., washed twice with PBS with 0.1% BSA, incubated with 20 μg/ml of R-Phycoerythrin-AffiniPure F(ab′)2 Fragment Goat Anti-Mouse IgG, Fcγ Fragment Specific (Jackson ImmunoResearch) for 30 minutes at 4° C., washed twice with PBS with 0.1% BSA, incubated with the viability dye TO-PRO-3 iodide (Life Technologies), and immediately analyzed on a MACSQuant Analyzer instrument (Miltenyi). For each cell line and anti-C16orf54 antibody, a fold change was derived by dividing the median fluorescence intensity for Phycoerythrin in the live cell population for the anti-C16orf54 antibody by the median fluorescence intensity for Phycoerythrin in the live cell population for the IgG isotype control antibody. A number of anti-C16orf54 antibodies (see, e.g., R29-8-57B, R29-8-136C, R29-7-1C, R29-67-7A, R29-67-4A, and R29-7-2A) bind human C16orf54 and also bind (e.g., are crossreactive with) cyno C16orf54.

[7] = target: T5, N-terminal 32 amino acids of huC16orf54 coupled to biotin (human, biotin at the C-terminus); experiment: biolayer interferometry (OctetQK384), hybridoma supernatant on streptavidin sensors coated with the biotinylated peptide
T5 construct: also called 32 amino acid N-terminal extracellular domain
T5 peptide: T1 sequence (Q6UWD8 1-32 limits assumed)
Procedure: Eight anti-huC16orf54 monoclonal antibodies were further screened for binding and subsequent off-rate analysis using the OctetQK384® sytem (ForteBio). Hybridoma supernatants were screened for association to and dissocation from streptavidin sensors coated with the N-terminal 32 amino acids of huC16orf54 coupled to biotin, and the calculated offrates (kdis) are shown in Table 31. Cloned hybridomas with […] off-rates were carried forward for antibody purification.

[8] = target: T4, human C16orf54; experiment: flow cytometry, HEL92.1.7 leukemia cells (endogenous C16orf54), 3 repeats
[9] = target: T5, N-terminal 32 amino acids of huC16orf54 …; experiment: biolayer interferometry (OctetQK384), purified antibody on streptavidin sensors coated with the biotinylated peptide
Procedure: as §1

[10] = target: T4, human C16orf54; experiment: flow cytometry, REH leukemia cells (endogenous C16orf54), 3 repeats

B1: R29-7-1C: murine anti-C16orf54 monoclonal antibody, IgG2a; VH SEQ ID NO: 8, VL SEQ ID NO: 10 (antibody, V domains shown)
VH: MRVLILLWLFTAFPGILSDVQLQESGPGLVKPSQSLSLTCTVTGYSITSDYAWNWIRQFPGNKLEWMGYISYSGSIRYNPSLKSRISITRDTSKNQFFLQLNSVTTEDTATYYCAREKYDNYYYAMDYWGQGTSVTVSS
VL: MDSQAQVLMLLLLWVSGTCGDIVMSQSPSSLAVSVGEKVTLSCKSSQNLLYSTNQKNYLAWYQQKPGQSPKLLIYWASTRESGVPDRFTGSGSGTDFTLTISSVKAEDLAVYYCQQYYSYRTFGGGTKLEIK
modifications: R29-7-1C heavy chain variable region; R29-7-1C light chain variable region
[1]
  kdis: 7.95e-05 ± 8.9e-06 s⁻¹
  kon: 68100 ± 6200 M⁻¹ s⁻¹

B2: R29-7-1C (antibody, V domains shown)
VH: DVQLQESGPGLVKPSQSLSLTCTVTGYSITSDYAWNWIRQFPGNKLEWMGYISYSGSIRYNPSLKSRISITRDTSKNQFFLQLNSVTTEDTATYYCAREKYDNYYYAMDYWGQGTSVTVSS
VL: DIVMSQSPSSLAVSVGEKVTLSCKSSQNLLYSTNQKNYLAWYQQKPGQSPKLLIYWASTRESGVPDRFTGSGSGTDFTLTISSVKAEDLAVYYCQQYYSYRTFGGGTKLEIK
notes: Murine monoclonal IgG2a from a hybridoma
[2]
  Kd: 0.77 nM
[3]
  EC50: 2.7 nM
[4]
  Average MFI fold change relative to isotype control: 9.2 fold
[5]
  Average MFI fold change relative to isotype control: 10.5 fold
[6]
  Median fold change relative to IgG control: 205 fold
[7]
  koff: 0.0102 s⁻¹
[8]
  Average MFI fold change relative to isotype control: 5 fold
[9]
  Kd: 1.1 nM
  koff: 7.95e-05 s⁻¹
  kon: 68100 M⁻¹ s⁻¹
[10]
  Average MFI fold change relative to isotype control: 6.4 fold
